The series relates to Escherichia coli TOP10. Kind of series: shrunken log2 fold change of peptide-encoding DNA abundance (4.5 h post-induction vs induction); higher = less antimicrobial activity (less host growth inhibition). As to conditions: time post-induction: 4.5 h; library: site-saturation at positions 5, 18, 19, 20.
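Further: peptides expressed intracellularly from a pBAD plasmid library in pooled LB shake-flask culture, induced with 0.3% L-arabinose, DNA abundance read by NGS, three biological replicates, DESeq2 with apeglm shrinkage.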

In the case of RRIRRRPPRLPRPRPRPNWCPRP, the “shrunken log2 fold change” value came to 0.177. Regarding RRIRNRPPRLPRPRPRPDMPPRP, the “shrunken log2 fold change” value is -0.244.

As to RRIRHRPPRLPRPRPRPNPLPRP, the “shrunken log2 fold change” value was -0.0904. On to RRIRIRPPRLPRPRPRPLFKPRP, for which the “shrunken log2 fold change” value is -0.773. Turning to RRIRPRPPRLPRPRPRPWSHPRP, the “shrunken log2 fold change” value is -0.157. For the sequence RRIRDRPPRLPRPRPRPEFWPRP, the “shrunken log2 fold change” value was 1.02. Next, RRIRLRPPRLPRPRPRPWPDPRP: -0.148. Turning to RRIRIRPPRLPRPRPRPADWPRP, the “shrunken log2 fold change” value was determined as 0.218. With RRIRDRPPRLPRPRPRPIDSPRP, the “shrunken log2 fold change” value was -0.0258.

With RRIRDRPPRLPRPRPRPYQNPRP, the “shrunken log2 fold change” value was -0.288. Next, RRIRRRPPRLPRPRPRPTTYPRP: -0.221.

As for RRIRLRPPRLPRPRPRPYDYPRP, the “shrunken log2 fold change” value is -0.0244.

In the case of RRIRRRPPRLPRPRPRPCDDPRP, the “shrunken log2 fold change” value is -0.0703.

As for RRIRLRPPRLPRPRPRPIPDPRP, the “shrunken log2 fold change” value is 0.00718. As to RRIRTRPPRLPRPRPRPRECPRP, the “shrunken log2 fold change” value is 0.00425. RRIRGRPPRLPRPRPRPGAGPRP: the “shrunken log2 fold change” value turned out to be 1.05.

Regarding RRIRWRPPRLPRPRPRPVSGPRP, the “shrunken log2 fold change” value is -0.0172. In the case of RRIRERPPRLPRPRPRPLCPPRP, the “shrunken log2 fold change” value is -0.393. For RRIRIRPPRLPRPRPRPNKEPRP the value was -0.131.

For RRIRFRPPRLPRPRPRPHHKPRP, the “shrunken log2 fold change” value is -0.462. For RRIRCRPPRLPRPRPRPYKYPRP the value was -0.551; for RRIRWRPPRLPRPRPRPYCRPRP, -0.295. With RRIRDRPPRLPRPRPRPRNVPRP, the “shrunken log2 fold change” value was found to be 0.0903. On to RRIRYRPPRLPRPRPRPRCDPRP, for which the “shrunken log2 fold change” value is -0.207. For RRIRVRPPRLPRPRPRPGIIPRP, the “shrunken log2 fold change” value was 0.136. As for RRIRNRPPRLPRPRPRPLQWPRP, the “shrunken log2 fold change” value amounted to 0.0683.

As to RRIRIRPPRLPRPRPRPMHGPRP, the “shrunken log2 fold change” value is -0.216. With RRIRDRPPRLPRPRPRPGNQPRP, the “shrunken log2 fold change” value was -0.0686. On to RRIRARPPRLPRPRPRPDYRPRP, for which the “shrunken log2 fold change” value is 0.0573. For the sequence RRIRIRPPRLPRPRPRPIMQPRP, the “shrunken log2 fold change” value was -0.557. RRIRYRPPRLPRPRPRPYCAPRP: the “shrunken log2 fold change” value is -0.899. Regarding RRIRGRPPRLPRPRPRPRDIPRP, the “shrunken log2 fold change” value was 0.373. Next, RRIRIRPPRLPRPRPRPKHCPRP: -0.405.

On to RRIRERPPRLPRPRPRPQIYPRP, for which the “shrunken log2 fold change” value was -0.23. Consider RRIRMRPPRLPRPRPRPECTPRP, for which the “shrunken log2 fold change” value was 2.91.

For the sequence RRIRERPPRLPRPRPRPVIHPRP, the “shrunken log2 fold change” value was -0.106. For RRIRYRPPRLPRPRPRPRQYPRP, the “shrunken log2 fold change” value came to 0.0153. Regarding RRIRFRPPRLPRPRPRPEKYPRP, the “shrunken log2 fold change” value is -0.397. For the sequence RRIRYRPPRLPRPRPRPFVDPRP, the “shrunken log2 fold change” value is -0.0498. In the case of RRIRRRPPRLPRPRPRPCRLPRP, the “shrunken log2 fold change” value is 0.144. Take RRIRNRPPRLPRPRPRPRKGPRP: the “shrunken log2 fold change” value is -0.16. For RRIRPRPPRLPRPRPRPQDGPRP, the “shrunken log2 fold change” value is 0.0623. As for RRIRPRPPRLPRPRPRPYWAPRP, the “shrunken log2 fold change” value was -0.365.

As to RRIRHRPPRLPRPRPRPGVFPRP, the “shrunken log2 fold change” value was found to be 0.0667.

As to RRIRYRPPRLPRPRPRPFKIPRP, the “shrunken log2 fold change” value was 0.0602. With RRIRFRPPRLPRPRPRPGAWPRP, the “shrunken log2 fold change” value is -0.15. Consider RRIRGRPPRLPRPRPRPRFQPRP, for which the “shrunken log2 fold change” value amounted to 0.158. Consider RRIRWRPPRLPRPRPRPHVYPRP, for which the “shrunken log2 fold change” value is -0.132.

With RRIRPRPPRLPRPRPRPVEMPRP, the “shrunken log2 fold change” value stood at 0.0666. RRIRIRPPRLPRPRPRPGKKPRP: the “shrunken log2 fold change” value was found to be 0.0847. For RRIRQRPPRLPRPRPRPYFGPRP the value was -0.305. RRIRTRPPRLPRPRPRPQCCPRP: the “shrunken log2 fold change” value is -0.0803. Turning to RRIRMRPPRLPRPRPRPPDMPRP, the “shrunken log2 fold change” value came out at 1.06. As for RRIRIRPPRLPRPRPRPPKGPRP, the “shrunken log2 fold change” value was 0.0681. As for RRIRSRPPRLPRPRPRPGHKPRP, the “shrunken log2 fold change” value was -0.112.

Take RRIRYRPPRLPRPRPRPPHDPRP: the “shrunken log2 fold change” value is -0.383. For RRIRWRPPRLPRPRPRPELCPRP the value was 0.579. For RRIRGRPPRLPRPRPRPILYPRP the value was 0.0934; for RRIRWRPPRLPRPRPRPHSKPRP, 1.84; for RRIRKRPPRLPRPRPRPILLPRP, -0.313. Consider RRIRERPPRLPRPRPRPSMYPRP, for which the “shrunken log2 fold change” value was -0.516. Turning to RRIRLRPPRLPRPRPRPMIRPRP, the “shrunken log2 fold change” value was -0.154. Take RRIRMRPPRLPRPRPRPDGFPRP: the “shrunken log2 fold change” value came to 0.0516. Next, RRIRERPPRLPRPRPRPKSAPRP: 0.116. In the case of RRIRIRPPRLPRPRPRPHAYPRP, the “shrunken log2 fold change” value is -0.549. For RRIRMRPPRLPRPRPRPYADPRP the value was 0.419; for RRIRRRPPRLPRPRPRPGMSPRP, 0.226; for RRIRFRPPRLPRPRPRPCIMPRP, -0.953. With RRIRMRPPRLPRPRPRPHAPPRP, the “shrunken log2 fold change” value came to 0.469. RRIRGRPPRLPRPRPRPFVQPRP: the “shrunken log2 fold change” value worked out at 0.0324.

Take RRIRWRPPRLPRPRPRPRYVPRP: the “shrunken log2 fold change” value is -0.147. On to RRIRPRPPRLPRPRPRPNTQPRP, for which the “shrunken log2 fold change” value was -0.159. For RRIRKRPPRLPRPRPRPTFNPRP, the “shrunken log2 fold change” value was -0.344. Next, RRIRFRPPRLPRPRPRPTGQPRP: 0.0488; RRIRHRPPRLPRPRPRPRAQPRP: 0.0972; RRIRHRPPRLPRPRPRPKGPPRP: 0.216. Consider RRIRHRPPRLPRPRPRPTIIPRP, for which the “shrunken log2 fold change” value is -0.494.

As for RRIRHRPPRLPRPRPRPKIHPRP, the “shrunken log2 fold change” value was -0.393.

On to RRIRIRPPRLPRPRPRPALYPRP, for which the “shrunken log2 fold change” value was -0.312. As for RRIRWRPPRLPRPRPRPRCSPRP, the “shrunken log2 fold change” value was 0.362. With RRIRCRPPRLPRPRPRPPPFPRP, the “shrunken log2 fold change” value came out at 2.05. Consider RRIRWRPPRLPRPRPRPKDGPRP, for which the “shrunken log2 fold change” value was 0.00598. Take RRIRIRPPRLPRPRPRPICFPRP: the “shrunken log2 fold change” value was -0.152. Regarding RRIRIRPPRLPRPRPRPYPAPRP, the “shrunken log2 fold change” value is -0.331.

Take RRIRKRPPRLPRPRPRPINWPRP: the “shrunken log2 fold change” value was 0.0577. Regarding RRIRCRPPRLPRPRPRPAHHPRP, the “shrunken log2 fold change” value is -0.222. In the case of RRIRLRPPRLPRPRPRPLQFPRP, the “shrunken log2 fold change” value is 0.0239. Take RRIRNRPPRLPRPRPRPYKEPRP: the “shrunken log2 fold change” value was -0.0525.

For the sequence RRIRARPPRLPRPRPRPGLVPRP, the “shrunken log2 fold change” value is 0.542. Next, RRIRPRPPRLPRPRPRPCRHPRP: -0.0363; RRIRGRPPRLPRPRPRPCYGPRP: -0.277. RRIRTRPPRLPRPRPRPIEVPRP: the “shrunken log2 fold change” value came to 0.131.

For RRIRMRPPRLPRPRPRPIKMPRP, the “shrunken log2 fold change” value was found to be 0.14. Turning to RRIRLRPPRLPRPRPRPDLYPRP, the “shrunken log2 fold change” value is -0.0419. Take RRIRERPPRLPRPRPRPQRPPRP: the “shrunken log2 fold change” value was -0.0471. With RRIRMRPPRLPRPRPRPCGVPRP, the “shrunken log2 fold change” value stood at 0.714. Consider RRIRRRPPRLPRPRPRPCWSPRP, for which the “shrunken log2 fold change” value was -0.0452.

Turning to RRIRWRPPRLPRPRPRPGMPPRP, the “shrunken log2 fold change” value was determined as 0.294. Take RRIRCRPPRLPRPRPRPSTLPRP: the “shrunken log2 fold change” value was -0.686.

With RRIRQRPPRLPRPRPRPMPNPRP, the “shrunken log2 fold change” value was -0.215.

Take RRIRYRPPRLPRPRPRPALTPRP: the “shrunken log2 fold change” value was -0.044.

As to RRIRARPPRLPRPRPRPNRRPRP, the “shrunken log2 fold change” value was 0.366. Next, RRIRKRPPRLPRPRPRPHMEPRP: 0.0155. With RRIRWRPPRLPRPRPRPMCNPRP, the “shrunken log2 fold change” value was -0.181. With RRIRSRPPRLPRPRPRPPQDPRP, the “shrunken log2 fold change” value was 0.264. As for RRIRRRPPRLPRPRPRPKKAPRP, the “shrunken log2 fold change” value is -0.00843. For RRIRFRPPRLPRPRPRPWFEPRP the value was -0.0653; for RRIRDRPPRLPRPRPRPRMTPRP, 0.212.

Regarding RRIRKRPPRLPRPRPRPQYDPRP, the “shrunken log2 fold change” value was -0.212. As for RRIRNRPPRLPRPRPRPIEVPRP, the “shrunken log2 fold change” value was 0.0112. Take RRIRPRPPRLPRPRPRPGFQPRP: the “shrunken log2 fold change” value turned out to be 0.215. With RRIRLRPPRLPRPRPRPLNKPRP, the “shrunken log2 fold change” value was -0.264. Take RRIRNRPPRLPRPRPRPEHHPRP: the “shrunken log2 fold change” value was -0.114. RRIRERPPRLPRPRPRPWGLPRP: the “shrunken log2 fold change” value was -0.026. Regarding RRIRKRPPRLPRPRPRPVAQPRP, the “shrunken log2 fold change” value is 0.541. As for RRIRFRPPRLPRPRPRPCDMPRP, the “shrunken log2 fold change” value was -0.00291. Turning to RRIRRRPPRLPRPRPRPKDDPRP, the “shrunken log2 fold change” value worked out at 0.302. In the case of RRIRTRPPRLPRPRPRPQIRPRP, the “shrunken log2 fold change” value is -0.312.

Regarding RRIRTRPPRLPRPRPRPSFCPRP, the “shrunken log2 fold change” value is -0.296. For RRIRFRPPRLPRPRPRPFTQPRP the value was 0.0192; for RRIRYRPPRLPRPRPRPNHTPRP, -0.259. As to RRIRTRPPRLPRPRPRPYRIPRP, the “shrunken log2 fold change” value is -0.0176. For RRIRHRPPRLPRPRPRPMCVPRP the value was -0.192. Next, RRIRKRPPRLPRPRPRPNTIPRP: 0.0945. As for RRIRKRPPRLPRPRPRPTKRPRP, the “shrunken log2 fold change” value is 0.697.
